Results published in paper PMC4013091, “Stabilization and Augmentation of Circulating AIM in Mice by Synthesized IgM-Fc” (PLoS ONE, 2014).
Several values for one entry are separate records, joined by “and”; a condition that tells them apart may be missing. Identical values can stand only once.

Assays:
[1] = biological target: FL-hFc, human IgM-Fc with a FLAG tag on the N-terminus of the CH2 domain (human); test: non-reducing SDS-PAGE and western blot; culture supernatant of HEK293T cells transfected with pCAGGS-FL-hFc only, without IgJ
[2] = biological target: FL-hFc, human IgM-Fc with a FLAG tag on the N-terminus of the CH2 domain (human); test: non-reducing SDS-PAGE and western blot; culture supernatant of HEK293T cells co-transfected with FL-hFc and IgJ-Myc; blotted with anti-FLAG and anti-Myc antibodies
[3] = biological target: human IgM-Fc pentamer (FL-hFc) combined with IgJ-Myc (human) (UniProt P01591)
Sequence of human IgM-Fc pentamer (FL-hFc) combined with IgJ-Myc (human) (P01591 whole entry): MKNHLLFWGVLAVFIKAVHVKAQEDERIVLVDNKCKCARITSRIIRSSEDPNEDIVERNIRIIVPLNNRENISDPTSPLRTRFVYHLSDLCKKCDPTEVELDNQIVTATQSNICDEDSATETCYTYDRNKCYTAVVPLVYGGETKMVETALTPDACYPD

[4] = biological target: human IgM-Fc pentamer (FL-hFc) combined with IgJ-Myc (human) (UniProt P01591); remark: listed apart in the source
[5] = biological target: human IgM-Fc pentamer (FL-hFc) combined with IgJ-Myc (human) (UniProt P01591); test: sequential immunoaffinity co-purification; supernatant of co-cultured HEK 293T cells (hAIM-HA cells with FL-hFc and IgJ-Myc cells); anti-hAIM monoclonal antibody column, then anti-FLAG column; fractions blotted with anti-HA and anti-FLAG
[6] = biological target: T1, human recombinant AIM (apoptosis inhibitor of macrophage) (human, UniProt O43866 20-347); test: SPR; Biacore 3000, 25°C; human rAIM covalently immobilised (2800 RU) on a CM5 chip; IgM-Fc monomer injected in 10 mM HEPES pH 7.4, 150 mM NaCl, 3 mM EDTA, 0.05% Tween-20 at 20 µL/min; 1:1 Langmuir model; apparent affinity; settings: both partners purified
T1 construct: also called human rAIM; rAIM; source: purified recombinant
T1 sequence (looked up): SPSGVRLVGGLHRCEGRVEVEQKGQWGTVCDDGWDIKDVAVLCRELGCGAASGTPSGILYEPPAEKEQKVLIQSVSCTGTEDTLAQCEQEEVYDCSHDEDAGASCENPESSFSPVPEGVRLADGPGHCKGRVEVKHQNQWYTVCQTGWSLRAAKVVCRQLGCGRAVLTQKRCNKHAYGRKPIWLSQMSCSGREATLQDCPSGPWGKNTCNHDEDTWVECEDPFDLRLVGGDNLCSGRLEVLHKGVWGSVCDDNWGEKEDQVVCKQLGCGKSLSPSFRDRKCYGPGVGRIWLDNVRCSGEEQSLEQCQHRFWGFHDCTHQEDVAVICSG

For “FL-hFc, human IgM-Fc with a FLAG tag on the N-terminus of the CH2 domain (domain or fragment)”, the stoichiometry N [1] was 5 and 6 and the stoichiometry N [2] was 5.

B1: endogenous mouse AIM in serum (natural protein)
chain: ESPTKVQLVGGAHRCEGRVEVEHNGQWGTVCDDGWDRRDVAVVCRELNCGAVIQTPRGASYQPPASEQRVLIQGVDCNGTEDTLAQCELNYDVFDCSHEEDAGAQCENPDSDLLFIPEDVRLVDGPGHCQGRVEVLHQSQWSTVCKAGWNLQVSKVVCRQLGCGRALLTYGSCNKNTQGKGPIWMGKMSCSGQEANLRSCLLSRLENNCTHGEDTWMECEDPFELKLVGGDTPCSGRLEVLHKGSWGSVCDDNWGEKEDQVVCKQLGCGKSLHPSPKTRKIYGPGAGRIWLDDVNCSGKEQSLEFCRHRLWGYHDCTHKEDVEVICTDFDV
Work on B1 yielded a circulating mouse AIM level in Δsμ mice 24 h after i.v. injection of 1 mg FL-hFc, as percent of that in the wild-type mouse (immunoblot of serum) [3] of 35%.

B2: HA-tagged human AIM (natural protein)
chain: SPSGVRLVGGLHRCEGRVEVEQKGQWGTVCDDGWDIKDVAVLCRELGCGAASGTPSGILYEPPAEKEQKVLIQSVSCTGTEDTLAQCEQEEVYDCSHDEDAGASCENPESSFSPVPEGVRLADGPGHCKGRVEVKHQNQWYTVCQTGWSLRAAKVVCRQLGCGRAVLTQKRCNKHAYGRKPIWLSQMSCSGREATLQDCPSGPWGKNTCNHDEDTWVECEDPFDLRLVGGDNLCSGRLEVLHKGVWGSVCDDNWGEKEDQVVCKQLGCGKSLSPSFRDRKCYGPGVGRIWLDNVRCSGEEQSLEQCQHRFWGFHDCTHQEDVAVICSG
B2 gave a half-life of hAIM in the blood of wild-type mice after i.v. injection of 100 µg hFc-AIM complex (less than 2 h for hAIM alone) [4] of 12 h and a mass of hAIM in 100 µg of the purified hFc-AIM complex [5] of 20 µg.

B3: monomeric human IgM-Fc (CH2-CH3-CH4) with a C-terminal Myc tag (domain or fragment)
chain: IAELPPKVSVFVPPRDGFFGNPRKSKLICQATGFSPRQIQVSWLREGKQVGSGVTTDQVQAEAKESGPTTYKVTSTLTIKESDWLGQSMFTCRVDHRGLTFQQNASSMCVPDQDTAIRVFAIPPSFASIFLTKSTKLTCLVTDLTTYDSVTISWTRQNGEAVKTHTNISESHPNATFSAVGEASICEDDWNSGERFTCTVTHTDLPSPLKQTISRPKGVALHRPDVYLLPPAREQLNLRESATITCLVTGFSPADVFVQWMQRGQPLSPEKYVTSAPMPEPQAPGRYFAHSILTVSEEEWNTGETYTCVVAHEALPNRVTERTVDKSTGKPTLYNVSLVMSDTAGTCY
modifications: Disulfide-linked dimer of the mu Fc chain (~100-110 kDa), N-glycosylated (HEK293T). C-terminal Myc tag, which blocks pentamer formation, omitted. Limits not printed: CH2 start by domain convention. …
With B3 the Kd [6] was 153 nM, the koff [6] was 0.00315 s⁻¹ and the kon [6] was 20500 M⁻¹ s⁻¹.
